From paper PMC6663034, “ACAP1 assembles into an unusual protein lattice for membrane deformation through multiple stages” (PLoS Computational Biology, 2019)

Molecular target: the molecule itself
Test: cryo-EM structure; cryo-electron tomography and sub-tomogram averaging of the ACAP1^BAR-PH coat on non-tubulated (spherical) portions of liposomes; average of 233 coat particles; dimer model PDB 4CKG fitted into the density; dimers to tetramer on membrane

B1: ACAP1^BAR-PH (a.a. 1-377) (domain or fragment, UniProt Q15027 1-377, looked up)
chain: MTVKLDFEECLKDSPRFRASIELVEAEVSELETRLEKLLKLGTGLLESGRHYLAASRAFVVGICDLARLGPPEPMMAECLEKFTVSLNHKLDSHAELLDATQHTLQQQIQTLVKEGLRGFREARRDFWRGAESLEAALTHNAEVPRRRAQEAEEAGAALRTARAGYRGRALDYALQINVIEDKRKFDIMEFVLRLVEAQATHFQQGHEELSRLSQYRKELGAQLHQLVLNSAREKRDMEQRHVLLKQKELGGEEPEPSLREGPGGLVMEGHLFKRASNAFKTWSRRWFTIQSNQLVYQKKYKDPVTVVVDDLRLCTVKLCPDSERRFCFEVVSTSKSCLLQADSERLLQLWVSAVQSSIASAFSQARLDDSPRGPGQ
notes: ACAP1 (Arfgap with Coil-coil, Ankryin repeat, PH domain 1), BAR-PH tandem, a.a; 1-377; also called BAR-PH tandem of ACAP1; wild-type ACAP1^BAR-PH; source: E. coli BL21 (DE3), purified (glutathione-Sepharose 4B, GST removed with Precision Protease)
  stoichiometry N: 4
